Results on 39 variants are retold here after the RNAGym collection of RNA variant scans (doi:10.7554/elife.80360).

The chains are these.
B1: CPEB3 Ribozyme (parent)
chain: GGGGGCCACAGCAGAAGCGUUCACGUCGCGGCCCCUGUCAGAUUCUGGUGAAUCUGCGAAUUCUGCUGU

In the series the parent is B1. As to the kind of experiment: self-cleavage, relative activity (ratio to wild type); higher = more cleavage; co-transcriptional.
As to AGGGGCCACAGCAGAAGCGUUCACGUCGCGGCCCCUGUCAGAUUCUGAUGAAUCUGCGAAUUCUGCUGU [G1A G48A], the self-cleavage was determined as 0.0895.

On to CGGGGCCACGGCAGAAGCGUUCACGUCGCGGCCCCUGUCAGAUUCUGGUGAAUCUGCGAAUUCUGCUGU [G1C A10G], for which the self-cleavage came out at 0.21.

For AGGGGCCACAGCAGAAGCGUUCACGUCGCCGCCCCUGUCAGAUUCUGGUGAAUCUGCGAAUUCUGCUGU [G1A G30C], the self-cleavage was found to be 0.0357.

With AGGGGCCACAGCAGAAGCGUUCACGUCGCAGCCCCUGUCAGAUUCUGGUGAAUCUGCGAAUUCUGCUGU [G1A G30A], the self-cleavage amounted to 0.0887.

For AGGGGCCACAGCAGAAGCGUUCACGUCGCGGCCCCUGUCAGAUUCUGGUAAAUCUGCGAAUUCUGCUGU [G1A G50A], the self-cleavage stood at 0.114.

As to AGGGGCCACAGCAGAAGCGUUCACGUCGCGGCCCCUGUCAGAUUCUGGUUAAUCUGCGAAUUCUGCUGU [G1A G50U], the self-cleavage came out at 0.0729.

For CGGGGCCACAGCAGAAGCGUUCACGUCGCGGCCCCUGUCAGAUUCUGGUGAAUCUGCGAAUUCUGCUGU [G1C], the self-cleavage came to 0.219.

For the variant AGGGGCCACAGCAGAAGCGUUCACGUCGCGGCCCCUGUCAGAUUCUGGUGAAUCUCCGAAUUCUGCUGU [G1A G56C], the self-cleavage came out at 0.0841.

In the case of AGGGGCCACAGCAGAAGCGUUCACGUCGCGGCCCCUGUCAGAUUCUGGUGAAUCUUCGAAUUCUGCUGU [G1A G56U], the self-cleavage was 0.103.

Consider AGGGGCCACAGCAGAAGCGUUCACGUCGCGGCCCCUGUCAGAUUCUGGUGAAUCUACGAAUUCUGCUGU [G1A G56A], for which the self-cleavage worked out at 0.0858.

In the case of CGGGGCCACAGCGGAAGCGUUCACGUCGCGGCCCCUGUCAGAUUCUGGUGAAUCUGCGAAUUCUGCUGU [G1C A13G], the self-cleavage worked out at 0.183.

CGGGGCCACAGCUGAAGCGUUCACGUCGCGGCCCCUGUCAGAUUCUGGUGAAUCUGCGAAUUCUGCUGU [G1C A13U]: the self-cleavage is 0.155.

CGGGGCCACAGCCGAAGCGUUCACGUCGCGGCCCCUGUCAGAUUCUGGUGAAUCUGCGAAUUCUGCUGU [G1C A13C]: the self-cleavage is 0.143.

Consider AGGGGCCACAGCAGAAGCGUUCACGUCGCGGCCCCUGUCAGAUUCUGGUGAAUCUGCGAAUACUGCUGU [G1A U62A], for which the self-cleavage worked out at 0.0846.

AGGGGCCACAGCAGAAGCGUUCACGUCGCGGCCCCUGUCAUAUUCUGGUGAAUCUGCGAAUUCUGCUGU [G1A G41U]: the self-cleavage came to 0.0947.

Turning to AGGGGCCACAGCAGAAGCGUUCACGUCGCGGCCCCUGUCACAUUCUGGUGAAUCUGCGAAUUCUGCUGU [G1A G41C], the self-cleavage is 0.0331.

Consider AGGGGCCACAGCAGAAGCGUUCACGUCGCGGCCCCUGUCAGAUUCUGGUGAAUCUGCGAAUUCUGCCGU [G1A U67C], for which the self-cleavage worked out at 0.121.

On to AGGGGCCACAGCAGAAGCGAUCACGUCGCGGCCCCUGUCAGAUUCUGGUGAAUCUGCGAAUUCUGCUGU [G1A U20A], for which the self-cleavage came out at 0.0538.

As to AGGGGCCACAGCAGAAGCGGUCACGUCGCGGCCCCUGUCAGAUUCUGGUGAAUCUGCGAAUUCUGCUGU [G1A U20G], the self-cleavage turned out to be 0.0728.

As to AGGGGCCACAGCAGAAGCGCUCACGUCGCGGCCCCUGUCAGAUUCUGGUGAAUCUGCGAAUUCUGCUGU [G1A U20C], the self-cleavage amounted to 0.0855.

On to CGGGGCCACAGCAGAAGCGUUCACGUCGCGGCCCCUGUCCGAUUCUGGUGAAUCUGCGAAUUCUGCUGU [G1C A40C], for which the self-cleavage was found to be 0.231.

For the variant CGGGGCCACAGCAGAAGCGUUCACGUCGCGGCCCCUGUCGGAUUCUGGUGAAUCUGCGAAUUCUGCUGU [G1C A40G], the self-cleavage came to 0.268.

As for AGGGGCCACAGCAGAAGCGUUCACGCCGCGGCCCCUGUCAGAUUCUGGUGAAUCUGCGAAUUCUGCUGU [G1A U26C], the self-cleavage was 0.138.

On to AGGGGCCACAGCAGAAGCGUUCACGACGCGGCCCCUGUCAGAUUCUGGUGAAUCUGCGAAUUCUGCUGU [G1A U26A], for which the self-cleavage was found to be 0.077.

On to AGGGGCCACAGCAGAAGCGUUCACGGCGCGGCCCCUGUCAGAUUCUGGUGAAUCUGCGAAUUCUGCUGU [G1A U26G], for which the self-cleavage amounted to 0.0674.

On to AGGGGCCACAGCAGAAGCGUUCACGUCGCGGCCCCUGUCAGAUUCUGGUGAAUCUGCGAAUUCUGCUGG [G1A U69G], for which the self-cleavage turned out to be 0.23.

Consider AGGGGCCACAGCAGAAGCGUUCACGUCGCGGCCCCUGUCAGAUUCUGGUGAAUCUGCGAAUUCUGCUGC [G1A U69C], for which the self-cleavage came to 0.187.

As to AGGGGCCACAGCAGAAGCGUUCACGUCGCGGCCCCUGUCAGAUUCUGGUGAAUCUGCGAAUUCUGCUGA [G1A U69A], the self-cleavage turned out to be 0.0727.

For the variant AGGGGCCACAGCAGAAGCGUUCACGUCGCGGCCCCUGUCAGAUUCUUGUGAAUCUGCGAAUUCUGCUGU [G1A G47U], the self-cleavage was found to be 0.104.

Regarding AGGGGCCACAGCAGAAGCGUUCACGUCGCGGCCCCUGUCAGAUUCUAGUGAAUCUGCGAAUUCUGCUGU [G1A G47A], the self-cleavage came out at 0.104.

With AGGGGCCACAGCAGAAGCGUUCACGUCGCGGCCCCUGUCAGAUUCUCGUGAAUCUGCGAAUUCUGCUGU [G1A G47C], the self-cleavage was determined as 0.0423.

Turning to CGGGGCCCCAGCAGAAGCGUUCACGUCGCGGCCCCUGUCAGAUUCUGGUGAAUCUGCGAAUUCUGCUGU [G1C A8C], the self-cleavage is 0.221.

On to CGGGGCCUCAGCAGAAGCGUUCACGUCGCGGCCCCUGUCAGAUUCUGGUGAAUCUGCGAAUUCUGCUGU [G1C A8U], for which the self-cleavage came out at 0.227.

Regarding AGGGGCCACAGCAGAAGCGUUCACGUCGCGGCCCCUGUCAGAUUCUGGUGAAUCUGCCAAUUCUGCUGU [G1A G58C], the self-cleavage stood at 0.126.

Regarding AGGGGCCACAGCAGAAGCGUUCACGUCGCGGCCCCUGUCAGAUUCUGGUGAAUCUGCAAAUUCUGCUGU [G1A G58A], the self-cleavage is 0.0724.

AGGGGCCACAGCAGAAGCGUGCACGUCGCGGCCCCUGUCAGAUUCUGGUGAAUCUGCGAAUUCUGCUGU [G1A U21G]: the self-cleavage turned out to be 0.0454.

Consider AGGGGCCACAGCAGAAGCGUACACGUCGCGGCCCCUGUCAGAUUCUGGUGAAUCUGCGAAUUCUGCUGU [G1A U21A], for which the self-cleavage was determined as 0.132.

CGGGGCCACAGCAGAAGCGUUCACGUCGCGGCCCCUGUCAGAUUCUGGUGACUCUGCGAAUUCUGCUGU [G1C A52C]: the self-cleavage is 0.2.

Regarding CGGGGCCACAGCAGAAGCGUUCACGUCGCGGCCCCUGUCAGAUUCUGGUGAGUCUGCGAAUUCUGCUGU [G1C A52G], the self-cleavage was found to be 0.24.
